“Also recorded” adds a separate entry of the source. Ends that are not written are not given here.
Key:
[1] = test system: flat and polyploid colonic adenomas; experiment: In vivo endoscopic imaging in CPC;Apc mice; conditions: CPC;Apc mouse; topical / intra-rectal, 100 μM, 5 min incubation
Experimental: A CPC;Apc mouse model that can develop spontaneous adenomas in distal colon epithelium^44 was also used. Under the control of the Cdx2 promoter (CDX2P-9.5NLS-Cre), Cre recombinase can sporadically delete the adenomatous polyposis coli (APC) allele, resulting in polyploid colonic adenomas or flat lesions. We collected images from mice (n=8) that ranged in age from 7 to 10 months.
In vivo imaging was performed with approval of the University of Michigan Committee on the Use and Care of Animals. CPC;Apc mice were used for in vivo imaging. […]
(§1) A rigid small animal endoscope (Karl Sorz Veterinary Endoscopy) was inserted into the rectum (Liu et al., Gut 62:395-403 (2013)) and used to image the distal colon^45. […] The distance between the endoscope tip and the anus, and the clockwise location of polyps, were recorded. […] A ratio of the fluorescence and reflectance images was determined to correct for differences in distance and geometry over the image field-of-view (FOV) (Joshi et al., Endoscopy 48:A1-A13 (2016)). […]
The mean fluorescence intensity was used to calculate the target-to-background (T/B) ratios. Images were processed and analyzed using custom software in Matlab (Mathworks) (Joshi et al., Gastroenterology 152:1002-1013 e1009 (2017)). Matlab software was used to quantify the fluorescence intensity. […]

[2] = test system: human colon organoids (adenoma, SSA, normal); experiment: In vivo endoscopic imaging of patient-derived colon organoids implanted in NOD/SCID mice; conditions: NOD/SCID mouse; topical administration
Experimental: Acute colitis was induced in 8-week-old NOD.Cg-Prkdcscid Il2rgtm1Wjl/SzJ mice (005557, The Jackson Laboratory)^40,41 by feeding them with 3.0% DSS (molecular weight 40,000; Cat #AAJ6360622; Alfa Aesar) dissolved in drinking water for 5 days (d). At 6 d, the donor organoids were released from the type I collagen gel, dissociated by EDTA, and washed with BSA-containing PBS as with the passage procedure. Approximately 2.5-5E5 cell aggregates in 200 μL were transplanted per mouse as previously described^42,43. Organoids were instilled into colonic lumen as a suspension by using a syringe and a thin flexible catheter 4 cm in length and 2 mm in diameter. The anal verge was glued for 6 hours after infusion to prevent luminal contents from being excreted immediately, then glue were removed by Ethanol. Mice were maintained as usual after the transplantation. The mice were housed in pathogen-free conditions and supplied water ad libitum under controlled conditions of humidity (50±10%), light (12/12 hour light/dark cycle) and temperature (25° C.). […]
as §1
The mean fluorescence intensity was used to calculate the target-to-background (T/B) ratios. Images were processed and analyzed using custom software in Matlab (Mathworks) (Joshi et al., Gastroenterology 152:1002-1013 e1009 (2017)). Matlab software was used to quantify the fluorescence intensity. The fluorescence intensity of regions of interest (ROI) was corrected by taking the ratio of fluorescence to reflectance, the fluorescence of interested region was taken as target (T), and adjacent mouse normal colon region with equal area was picked for use as background (B)^46. […]

cMet [3] = biological target: T1, cMet (Homo sapiens, UniProt P08581); experiment: Confocal microscopy of binding to S114 (cMet+) versus NIH3T3 (cMet−) cells; assay type: cell-based, mouse; set-up: expressed in transfected cells; host or cells: S114 (NIH 3T3 mouse fibroblasts transformed with human HGF/SF and Met); NIH3T3 as cMet- control; conditions: 5 μM peptide
T1 sequence (P08581 25-1390): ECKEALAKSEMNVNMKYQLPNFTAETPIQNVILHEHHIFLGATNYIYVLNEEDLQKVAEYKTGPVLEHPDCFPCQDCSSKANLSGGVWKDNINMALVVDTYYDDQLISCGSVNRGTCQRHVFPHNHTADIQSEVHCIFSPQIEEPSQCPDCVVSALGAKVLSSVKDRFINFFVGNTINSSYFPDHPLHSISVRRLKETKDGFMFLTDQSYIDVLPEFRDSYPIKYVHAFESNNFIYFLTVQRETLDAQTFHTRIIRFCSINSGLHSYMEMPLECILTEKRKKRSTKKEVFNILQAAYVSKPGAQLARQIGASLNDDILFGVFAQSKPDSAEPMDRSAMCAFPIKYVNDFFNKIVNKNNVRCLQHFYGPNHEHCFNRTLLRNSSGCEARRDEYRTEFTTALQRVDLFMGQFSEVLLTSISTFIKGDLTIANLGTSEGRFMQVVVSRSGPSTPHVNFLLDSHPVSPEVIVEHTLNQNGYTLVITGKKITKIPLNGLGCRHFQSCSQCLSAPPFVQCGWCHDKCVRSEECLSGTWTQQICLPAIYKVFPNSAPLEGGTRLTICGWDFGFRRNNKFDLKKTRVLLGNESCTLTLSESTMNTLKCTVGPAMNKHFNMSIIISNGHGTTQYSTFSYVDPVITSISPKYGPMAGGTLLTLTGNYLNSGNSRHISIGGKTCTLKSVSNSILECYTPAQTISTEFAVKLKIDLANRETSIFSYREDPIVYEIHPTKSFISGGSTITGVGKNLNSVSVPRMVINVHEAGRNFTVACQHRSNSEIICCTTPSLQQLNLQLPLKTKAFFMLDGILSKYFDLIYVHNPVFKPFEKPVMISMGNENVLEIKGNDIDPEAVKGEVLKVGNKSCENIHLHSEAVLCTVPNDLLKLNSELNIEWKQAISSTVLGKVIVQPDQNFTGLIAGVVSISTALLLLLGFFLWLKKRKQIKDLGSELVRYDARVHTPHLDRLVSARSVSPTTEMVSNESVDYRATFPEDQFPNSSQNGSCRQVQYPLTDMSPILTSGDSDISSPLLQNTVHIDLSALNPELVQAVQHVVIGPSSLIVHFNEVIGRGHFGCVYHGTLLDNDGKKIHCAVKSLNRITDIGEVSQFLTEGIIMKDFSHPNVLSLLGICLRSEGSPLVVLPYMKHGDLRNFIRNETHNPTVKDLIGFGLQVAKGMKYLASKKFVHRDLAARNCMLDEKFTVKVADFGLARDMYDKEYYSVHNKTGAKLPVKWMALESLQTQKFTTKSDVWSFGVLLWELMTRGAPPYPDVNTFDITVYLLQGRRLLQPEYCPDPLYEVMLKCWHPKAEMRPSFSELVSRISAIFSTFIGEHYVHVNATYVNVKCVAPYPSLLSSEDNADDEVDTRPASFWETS
Excerpt: Human CRC cell lines HT29, SW480, CCD841 and mouse embryonic fibroblast cell line NIH 3T3 were obtained from the American Type Culture Collection (ATCC, Manassas, VA). The S114 cell line comprised NIH 3T3 cells transformed with human HGF/SF and Met and expressed cMet. We used McCoy's 5A Medium (Gibco) for culturing HT29 cells and Dulbecco's Modified Eagle Medium (Gibco) was used to culture SW480, NIH3T3 and S114 cells. Eagle's Minimum Essential Medium (Lonza) was used for CCD841 cells. All cells were cultured at 37° C. in 5% CO2, and supplemented with 10% fetal bovine serum (FBS). The cells were passaged using 0.25% trypsin containing EDTA (Mediatech, Manassas, VA). Cell numbers were quantitated on a hemocytometer. Peptide synthesis reagents were obtained from Anaspec (Anaspec, Fremont, CA) or AAPPTEC (AAPPTEC, Louisville, KY), were of the highest grade available (>99% purity), and were used without further purification. […]
HT29, SW480, S114 and NIH3T3 cells were inoculated in 12-well cell culture plates with circle glass coverslips to about 80% confluence. […] Confocal fluorescence images were collected using a 63× oil-immersion objective (Leica SP5 Inverted 2-Photon FLIM Confocal). Fluorescence intensities from five cells in two independent images were quantified using custom Matlab (Mathworks) software.

cMet [4] = biological target: T1, cMet; experiment: siRNA knockdown of cMet in HT29 cells, binding by confocal microscopy; assay type: cell-based
Experimental: (§2) HT29, SW480, S114 and NIH3T3 cells were inoculated in 12-well cell culture plates with circle glass coverslips to about 80% confluence. The cells were blocked with 1×PBS plus 2% BSA for 1 hour at 4° C., then were incubated with 5 μM peptides for 10 min at RT in the dark, washed thrice, and fixed with 4% PFA for 5 min, washed with 1×PBS, then mounted on glass slides with ProLong Gold reagent containing DAPI (Invitrogen, Waltham, MA). As positive control, after blocking with 2% BSA for 1 hour at 4° C., A 1:3000 dilution of primary monoclonal rabbit anti-cMet antibody (Cell Signaling Technology, #8198) was incubated with cells overnight at 4° C. Afterward, the cells were washed thrice with 1×PBS and further incubated with a 1:500 dilution of AF488-labeled secondary goat ant-rabbit immunoglobulin G antibody (Life Technologies, #A-11029) for 1 hour at RT, washed thrice, and then mounted on glass slides with ProLong Gold reagent containing DAPI. Confocal fluorescence images were collected using a 63× oil-immersion objective (Leica SP5 Inverted 2-Photon FLIM Confocal). Fluorescence intensities from five cells in two independent images were quantified using custom Matlab (Mathworks) software.
We knocked down cMet protein levels with siRNAs and then evaluated the binding of QQT*-Cy5.5 and TLQ*-Cy5.5 to the surface of si-cMet-transfected HT29 cells to validate specific peptide binding. We used siRNA1 (SASI_Hs01_00133002, Sigma) for HT29, siRNA2 (SASI_WI_00000001, Sigma) for S114, and MISSION® siRNA #1 Universal Negative Control (SIC001, Sigma) for a negative control. We transfected cells with Lipofectamine 2000 (11668027, Invitrogen) per manufacturer instructions. Knockdown of cMet was confirmed by Western blot (FIG. 18). The cells were incubated with 5 μM peptide for 5 min at RT (i.e., room temperature), and then fixed and mounted on glass slides with ProLong Gold reagent containing DAPI, as previous described. […] Confocal fluorescence images were collected using a 63× oil-immersion objective (Leica SP5 Inverted 2-Photon FLIM Confocal).

cMet [5] = biological target: T1, cMet; experiment: Confocal microscopy of binding to HT29 (cMet+) versus SW480 (cMet−) cells; assay type: cell-based
Experimental: as §2

mouse cMet-ECD = biological target: T2, mouse cMet-ECD (Mus musculus, UniProt P16056); experiment: Pull-down assay; assay type: binding; conditions: peptide immobilized on EHS beads
T2 construct: incubated with purified mouse cMet-ECD protein (50622-M08H, Sino Biological); purchased Sino Biological 50622-M08H
T2 sequence (P16056 25-931 limits assumed): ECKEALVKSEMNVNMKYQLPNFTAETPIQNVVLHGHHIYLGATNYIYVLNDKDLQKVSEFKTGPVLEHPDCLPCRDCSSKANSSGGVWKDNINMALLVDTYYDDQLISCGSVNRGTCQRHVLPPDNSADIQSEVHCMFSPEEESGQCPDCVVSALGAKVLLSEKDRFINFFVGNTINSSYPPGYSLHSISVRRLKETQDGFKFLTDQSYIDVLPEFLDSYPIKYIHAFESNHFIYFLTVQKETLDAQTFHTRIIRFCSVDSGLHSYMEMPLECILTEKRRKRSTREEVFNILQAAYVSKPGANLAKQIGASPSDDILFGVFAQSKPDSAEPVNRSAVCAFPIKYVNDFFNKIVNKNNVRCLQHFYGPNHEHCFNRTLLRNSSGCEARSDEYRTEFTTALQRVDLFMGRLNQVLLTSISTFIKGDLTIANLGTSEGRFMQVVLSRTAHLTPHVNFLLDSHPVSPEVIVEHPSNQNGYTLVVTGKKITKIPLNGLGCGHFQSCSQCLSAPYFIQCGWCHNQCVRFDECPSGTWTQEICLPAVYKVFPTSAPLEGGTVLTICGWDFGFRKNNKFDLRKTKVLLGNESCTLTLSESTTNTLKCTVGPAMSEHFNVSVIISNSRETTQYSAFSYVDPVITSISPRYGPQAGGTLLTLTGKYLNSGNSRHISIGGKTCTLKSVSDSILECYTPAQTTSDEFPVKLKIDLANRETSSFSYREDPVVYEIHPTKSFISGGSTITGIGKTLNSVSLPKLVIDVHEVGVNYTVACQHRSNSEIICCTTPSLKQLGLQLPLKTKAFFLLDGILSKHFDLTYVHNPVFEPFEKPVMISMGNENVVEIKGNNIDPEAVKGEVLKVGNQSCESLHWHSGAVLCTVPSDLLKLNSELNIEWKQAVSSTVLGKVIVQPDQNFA
Experimental: Interactions between peptide and mouse cMet were evaluated using a pull-down assay (Paul et al., Methods 54:387-395 (2011)). Peptides were immobilized on EHS active beads (17-0906-01, GE), and incubated with purified mouse cMet-ECD protein (50622-M08H, Sino Biological). After washing, bound proteins were detected by Western blot (FIG. 18).

[6] = test system: phosphorylation of cMet, AKT and ERK1/2; experiment: Effect of peptide on cell signaling (Western blot); assay type: cell-based, human; conditions: HT29 cells; 10, 30, 120 min; HGF 25 ng/mL; peptide 5 or 100 μM
Experimental: HT29 cells were treated with serum-free medium overnight for starvation before incubation with hHGF (hHGF, 294-HG-005, R&D) or peptides. Recombinant Human HGF Protein was added to HT29 cells at concentrations of 25 ng/ml for 10, 30, or 120 min in separate wells. QQT*-Cy5.5 and TLQ*-Cy5.5 were added at concentrations of 5 or 100 μM for 10, 30, and 120 min. Peptides were added at concentrations of 5 and 100 μM for 10, 30, or 120 min. Cells were then washed with 1×PBS and lysed with Pierce RIPA buffer containing Halt Phosphatase Inhibitor Cocktail (Thermo Fisher) and Halt Protease Inhibitor Cocktail (Thermo Fisher). Protein contents were quantified by Bicinchoninic Acid Assay (BCA). Anti-cMet antibody (Cell Signaling, #8198), phospho-cMet (Tyr1234/1235) antibody (Cell Signaling, #3077), anti-AKT antibody (Cell Signaling, #4691), anti-phospho-AKT antibody (Cell Signaling, #9271), anti-ERK1/2 antibody (Abcam, #ab17942), anti-phospho-ERK1/2 antibody (Abcam, #ab50011), and anti-tubulin antibody (Invitrogen, #32-2600) were used per manufacturer's instructions.

cMet (HT29 cells) [7] = biological target: T3, cMet (HT29 cells) (Homo sapiens, UniProt P08581); experiment: Competition for peptide binding with unlabeled peptides; set-up: endogenous in cells; host or cells: HT29 (cMet+), SW480 (cMet-), HT29 with siRNA knockdown; conditions: unlabeled peptide 0-400 μM, 5 μM QQT*-Cy5.5
T3 sequence (P08581 25-1390): as the sequence (P08581 25-1390) above
Experimental: (§3) We used a competition assay between labeled QQT*-Cy5.5 and either unlabeled QQT* or recombinant human hepatocyte growth factor (HGF, […], R&D) to validate the specific binding of QQT**-Cy5.5 to HT29 cells. Approximately 10^3 HT29 cells were grown to about 70% confluence on coverslips in triplicate. Unlabeled QQT* and either TLQ* peptide at 0, 25, 50, 100, 200 and 400 μM, or HGF at 0, 5, 10, 25, 50 or 100 ng/mL, were first added and incubated with the cells for 30 min (i.e., minutes) at 4° C. The cells were washed with 1×PBS three times and then incubated with 5 μM QQT*-Cy5.5 for another 30 min at 4° C. The cells were washed three times with 1×PBS and then fixed with 4% PFA for 10 min. The cells were washed with 1×PBS and mounted with ProLong Gold reagent containing DAPI (Invitrogen). Confocal fluorescence images were collected at each concentration using a 63× objective (Leica SP5 Inverted 2-Photon FLIM Confocal), and intensities from five cells in three independent images were quantified using custom Matlab (Mathworks, Natick, MA) software.

cMet (HT29 cells) [8] = biological target: T3, cMet (HT29 cells); experiment: Competition for peptide binding with HGF; set-up: endogenous in cells; host or cells: HT29 (cMet+), SW480 (cMet-), HT29 with siRNA knockdown; conditions: HGF 0 to 100 ng/mL; confocal microscopy
Experimental: as §3

[9] = confocal microscopy, 5 μM peptide

Substance	NIR fluorescence image of flat lesion [1]	NIR fluorescence image of polyp [1]	fluorescence signal from human SSA organoid in vivo [2]	fluorescence signal from human adenoma organoid in vivo [2]	fluorescence signal from human normal organoid in vivo [2]	binding to surface of S114 cells (cMet+) (cMet [3])	signal / binding to NIH3T3 cells (cMet−) (cMet [3])	intensity reduction with knockdown of cMet (cMet [4]; HT29 siCL versus sicMet) [fold]	binding to surface of control HT29 cells (cMet [4]; HT29 transfected with siCL non-targeting siRNA, confocal microscopy, 5 μM peptide)	fluorescence intensity / binding with HT29 knockdown cells (cMet [4]; HT29 transfected with sicMet-targeting siRNA, confocal microscopy)	mean intensity HT29 versus SW480 cells (cMet [5]) [fold change]	binding to surface of HT29 cells (cMet+) (cMet [5]; [9])	signal / binding to SW480 cells (cMet−) (cMet [5]; [9])	binding to mouse cMet-ECD, Western blot band (mouse cMet-ECD)	phosphorylation of cMet and downstream AKT and ERK1/2 [6]	change of QQT*-Cy5.5 fluorescence intensity on addition of unlabeled peptide (cMet (HT29 cells) [7])	change of binding to HT29 cells with addition of HGF (cMet (HT29 cells) [8])
TLQ*-Cy5.5: scrambled control sequence TLQWNQS (SEQ ID NO:3) labeled with Cy5.5 via GGGSK linker (TLQWNQSGGGS-{K(Cy5.5)-NH2})	little signal; also recorded: minimal signal	minimal signal	minimal signal; also recorded: little signal	little signal; also recorded: minimal signal	little signal; also recorded: minimal signal	minimal binding	little binding	0.96	minimal binding	little signal; also recorded: little binding	0.85	minimal binding	little binding	–	–	–	–
QQTNWSL [QQT*]	–	–	–	–	–	–	–	–	–	–	–	–	–	strong band	no change in phosphorylation	decrease significantly; also recorded: significant decrease	no competition
TLQWNQS (Artificial Seuqence) [TLQ*]	–	–	–	–	–	–	–	–	–	–	–	–	–	–	–	no significant change	–

Reference: patent publication US12697402B2, “Detection of colonic neoplasia in vivo using near-infrared peptide targeted against overexpressed cMet” (THE REGENTS OF THE UNIVERSITY OF MICHIGAN, priority 2019, dated 2026)
